Test results taken from PMC5014551, “Role of Nfu1 and Bol3 in iron-sulfur cluster transfer to mitochondrial clients” (eLife, 2016).

Biological target: T1, recombinant human BOLA1, fluorescently labelled (human, UniProt Q9Y3E2 1-137, NT-647 dye (Monolith NT Protein Labeling Kit RED))
T1 construct: BOLA1, human mitochondrial BolA protein
T1 sequence (looked up): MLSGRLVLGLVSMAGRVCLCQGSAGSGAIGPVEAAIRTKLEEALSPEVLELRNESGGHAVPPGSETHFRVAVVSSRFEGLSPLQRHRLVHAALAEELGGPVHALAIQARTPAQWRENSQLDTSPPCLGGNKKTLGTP
Test: MST; 200 nM NT-647 labelled protein titrated with unlabelled protein from 200 µM to 6.1 nM; 50 mM KPi pH 7.4, 150 mM NaCl, 5% glycerol, 0.05 mg/mL BSA, 0.05% Tween20; 21°C; anaerobic
Settings: both partners purified

B1: human holo-GLRX5 dimer containing the bridging [2Fe-2S] cluster (natural protein, UniProt Q86SX6 32-157, looked up)
chain: AGSGAGGGGSAEQLDALVKKDKVVVFLKGTPEQPQCGFSNAVVQILRLHGVRDYAAYNVLDDPELRQGIKDYSNWPTIPQVYLNGEFVGGCDILLQMHQNGDLVEELKKLGIHSALLDEKKDQDSK
modifications: bridging [2Fe-2S] cluster between two GLRX5 monomers
notes: GLRX5, human mitochondrial monothiol glutaredoxin, chemically reconstituted; also called chemically reconstituted GLRX5; source: chemically reconstituted with Fe-S cluster in an anaerobic chamber
  fold affinity against BOLA3: 50 fold
